Results from article doi:10.1101/2025.10.27.684941.

Columns and labels:
[1] = target: Venus-PDZ1 (ZO-1) (human) (UniProt Q07157); assay: co-IP
[2] = target: biotinylated C-terminal Cx36 peptide, D317F (UniProt O54851); assay: pull-down
[3] = target: biotinylated C-terminal Cx36 peptide, D317A (UniProt O54851); assay: pull-down

Chain of UniProt Q07157 (Q07157 whole entry): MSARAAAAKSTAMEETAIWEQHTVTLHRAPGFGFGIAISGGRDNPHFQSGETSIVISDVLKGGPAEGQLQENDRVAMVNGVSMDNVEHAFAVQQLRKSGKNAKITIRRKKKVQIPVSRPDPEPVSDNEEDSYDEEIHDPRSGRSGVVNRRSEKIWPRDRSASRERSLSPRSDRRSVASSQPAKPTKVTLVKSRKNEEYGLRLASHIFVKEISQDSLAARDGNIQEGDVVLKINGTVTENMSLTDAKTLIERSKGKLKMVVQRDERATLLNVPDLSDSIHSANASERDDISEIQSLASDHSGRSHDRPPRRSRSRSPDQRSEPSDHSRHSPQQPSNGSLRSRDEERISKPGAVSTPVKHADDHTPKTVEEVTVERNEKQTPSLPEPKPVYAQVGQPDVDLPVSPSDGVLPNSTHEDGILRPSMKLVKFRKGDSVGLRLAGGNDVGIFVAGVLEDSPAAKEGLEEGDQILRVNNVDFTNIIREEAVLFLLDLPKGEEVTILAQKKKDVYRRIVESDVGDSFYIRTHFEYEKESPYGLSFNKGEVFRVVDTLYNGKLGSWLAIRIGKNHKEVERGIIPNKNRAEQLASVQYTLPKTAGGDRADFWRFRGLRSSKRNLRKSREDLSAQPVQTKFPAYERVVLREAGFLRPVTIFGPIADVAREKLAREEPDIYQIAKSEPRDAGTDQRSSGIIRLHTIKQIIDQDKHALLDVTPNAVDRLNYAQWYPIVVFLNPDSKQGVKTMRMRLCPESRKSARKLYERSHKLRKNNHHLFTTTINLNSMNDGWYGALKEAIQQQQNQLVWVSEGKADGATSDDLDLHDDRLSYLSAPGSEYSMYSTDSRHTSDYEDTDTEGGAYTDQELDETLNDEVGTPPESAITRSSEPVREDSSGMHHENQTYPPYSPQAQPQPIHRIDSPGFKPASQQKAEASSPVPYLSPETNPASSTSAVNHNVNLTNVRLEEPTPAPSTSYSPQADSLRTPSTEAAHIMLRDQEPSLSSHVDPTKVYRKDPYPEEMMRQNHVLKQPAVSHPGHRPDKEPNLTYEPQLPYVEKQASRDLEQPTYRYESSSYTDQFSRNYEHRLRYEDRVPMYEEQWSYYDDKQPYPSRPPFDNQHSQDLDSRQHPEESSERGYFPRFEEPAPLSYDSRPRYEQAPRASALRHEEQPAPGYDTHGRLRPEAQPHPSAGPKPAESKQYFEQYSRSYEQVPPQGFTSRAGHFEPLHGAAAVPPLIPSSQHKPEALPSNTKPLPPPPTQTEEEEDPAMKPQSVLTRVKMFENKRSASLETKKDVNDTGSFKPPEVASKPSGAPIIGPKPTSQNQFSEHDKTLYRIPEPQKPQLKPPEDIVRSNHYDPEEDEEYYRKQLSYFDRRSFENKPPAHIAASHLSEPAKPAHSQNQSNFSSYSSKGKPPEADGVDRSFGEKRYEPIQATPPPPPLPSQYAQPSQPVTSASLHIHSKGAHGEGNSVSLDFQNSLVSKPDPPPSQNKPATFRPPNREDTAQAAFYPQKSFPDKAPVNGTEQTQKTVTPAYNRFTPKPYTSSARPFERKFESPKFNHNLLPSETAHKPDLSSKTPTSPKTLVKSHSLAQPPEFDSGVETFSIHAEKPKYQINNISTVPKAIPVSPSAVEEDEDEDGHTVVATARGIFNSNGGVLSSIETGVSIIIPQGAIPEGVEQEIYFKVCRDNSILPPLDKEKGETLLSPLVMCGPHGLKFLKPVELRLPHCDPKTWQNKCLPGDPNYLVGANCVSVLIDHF

Substance | fold increase in binding over wild type Cx36 [1] [times] | fold increase in binding over the wild-type peptide [2] [fold] | fold increase in binding over the wild-type peptide [3] [fold]
Cx36 D317A (from UniProt O54851 1-321) (natural protein) | 5 to 7 | – | –
Cx36 D317F (from UniProt O54851 1-321) (natural protein) | 5 to 7 | – | –
His-Venus-PDZ1 (ZO-1) (domain or fragment) | – | 10 | 5
